Here are results for one substance from article PMC3574636.

The assay addresses microtubules (tubulin purified from bovine brain) (bovine) (UniProt Q6B856). In words: co-sedimentation.

microtubules (tubulin purified from bovine brain) (bovine), sequence (Q6B856 whole entry, looked up): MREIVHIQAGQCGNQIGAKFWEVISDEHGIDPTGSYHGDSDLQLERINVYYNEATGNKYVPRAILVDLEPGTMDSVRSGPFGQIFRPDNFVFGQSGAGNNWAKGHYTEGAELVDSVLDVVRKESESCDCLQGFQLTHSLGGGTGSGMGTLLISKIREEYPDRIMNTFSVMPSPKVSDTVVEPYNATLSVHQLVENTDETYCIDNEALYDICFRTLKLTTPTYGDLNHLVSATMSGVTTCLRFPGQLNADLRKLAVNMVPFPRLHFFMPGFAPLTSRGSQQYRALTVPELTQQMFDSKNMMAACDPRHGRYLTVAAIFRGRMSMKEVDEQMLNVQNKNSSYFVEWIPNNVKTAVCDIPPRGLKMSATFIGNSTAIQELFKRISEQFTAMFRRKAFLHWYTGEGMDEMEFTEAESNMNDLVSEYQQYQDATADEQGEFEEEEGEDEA

Substance “native kinesin (kinesin-1, conventional kinesin) purified from bovine brain (complex)” came in with an active fraction by microtubule pulldown (no CK2) of 20% and a percent of motor bound to microtubules (after CK2, 3:1 kinase:motor) of 80%.
